We go through one substance from US20060251661A1.

The assay concerns the target OVA peptide 257-264 (SIINFEKL) presented on MHC class I molecule K^b of antigen presenting cells (mouse; chicken). Put plainly: cell-based or functional assay.

“α-β T cell receptor (TCR) of B3Z CD8+ T hybridoma cells, specific for OVA257-264 presented on K^b” came in with a % of B3Z cells activated (lacZ reporter, flow cytometry); lymph node cells of mice with B16/OVA tumors injected with α-gal glycolipids of 1.07 to 3.66% and a % of B3Z cells activated (lacZ reporter, flow cytometry); lymph node cells of mice with PBS treated B16/OVA tumors of 0 to 0.14%.
